These results are taken from paper PMC10987460, “Impact of different models based on blood samples and images for bone marrow dosimetry after ^177Lu-labeled somatostatin-receptor therapy” (EJNMMI Physics, 2024).

The conditions of series [1]: human, in vivo; cited from earlier work. From the text: Peptide receptor radionuclide therapy (PRRT) with ^177Lu-DOTATATE or ^177Lu-oxodotreotide, a somatostatin analog radiolabeled with ^177Lu, is a recognized therapeutic option for metastatic or symptomatic patients with midgut WHO grade I-II neuroendocrine tumors. […] The standard treatment consists in four intravenous injections of 7.4 GBq of ^177Lu-DOTATATE administered every 8 weeks. This the ...

Details of series [2]: species or system patients. Conditions: in vivo. The protocol: A retrospective study was conducted on 59 patients treated in our institution for neuroendocrine tumors (NET) with ^177Lu-DOTATATE (Lutathera ®) between 2019 and 2021. In a standard study, patients received 4 cycles of ^177Lu-DOTATATE at the recommended activity of 7400 MBq during a 30-min intravenous perfusion. The interval between each cycle was eight weeks. The study was declared to the Health Data Hub (number: F20230102114415).
Six to nine blood samples were collected at 0.5, 1, 2, 4, 8, 16, 24, 72 and 144 h post-injection in each patient. Blood was collected in the arm contralateral to that in which ^177Lu-DOTATATE was injected. Blood samples were centrifuged at 1000xg for 10 min at ambient temperature. Radioactivity was measured in 1 ml aliquots of plasma using a WIZARD^2™ 2480-0010 Gamma Counter (Perkin Elmer, MS, USA). A calibration curve with ^177Lu-DOTATATE was established to normalize the data obtained with the gamma counter. Radioactivity-time data were expressed in MBq/L after correction for radioactive decay between the time of the sampling and the measurement according to the equation: C(t)corr=C(t)measured×e^-Ln2/T1/2,177Lu(tmeasured-t) where C(t)corr is ^177Lu-Dotatate concentration at time t corrected for radioactive decay, C(t)measured is the ^177Lu-Dotatate concentration measured at time tmeasured, T1/2,^177Lu is the half-time disintegration of ^177Lu and T0 is the time of ^177Lu-Dotatate injection.
For the blood-based method, the activity concentration was fitted by a mono-, bi- or tri- exponential curve to infinity to estimate the area under the curve (AUC) using an in-house Python program (Python 3.10, numpy and matplotlib libraries). […]
To estimate the influence of the late timepoints for the blood-based method, we estimated the absorbed dose with only the timepoints before 24 h post-injection. For the image-based method, we kept only three timepoints by deleting the last one and compared the absorbed dose to the one calculated with all the timepoints.

For series [3] the following is noted: in vivo; cited from earlier work. From the text: Table 1 Literature review of absorbed dose in bone marrow for ^177Lu-PRRT | column: Bone marrow absorbed dose (Gy/GBq) || Recently, the EANM dosimetry committee published its recommendations for the dosimetry of ^177Lu-labeled somatostatin-receptor and PSMA-targeting ligands. For ^177Lu-PRRT, the median value for the red marrow absorbed dose across all the studies is 50 mGy/GBq. The total-body time activity curve (TAC) is generally biphasic, as is the case for the blood TAC. The recommendation for dosimetry is to measure the activity concentration in the blood even if sequential planar or SPECT/CT whole-body imaging is also possible. || The median absorbed dose ranged from 15.3 to 63.9 mGy/GBq depending on the method used, which is coherent with the median literature value of 50 mGy/GBq (range 2 to 150 mGy/GBq) (see Table 1). With the blood-based method, the tri-exponential model gave a higher median absorbed dose than the bi-exponential model, which also gave a higher median dose than the mono-exponential model. The tri-exponential model was not always accurate and sometimes gave an infinite AUC, that is maybe due to the low number of points especially for the image-based method where we only have 4 points.

With `C[C@@H](O)[C@H](NC(=O)[C@@H]1CSSC[C@H](NC(=O)[C@@H](Cc2ccccc2)NC(=O)CN2CCN(CC(=O)O)CCN(CC(=O)O)CCN(CC(=O)O)CC2)C(=O)N[C@@H](Cc2ccc(O)cc2)C(=O)N[C@H](Cc2c[nH]c3ccccc23)C(=O)N[C@@H](CCCCN)C(=O)N[C@@H]([C@@H](C)O)C(=O)N1)C(=O)O` [^177Lu-DOTATATE, metal not drawn], in series [1], the “Grade 3 or 4 lymphopenia” value was 9%; the “Grade 3 or 4 thrombopenia” value is recorded as 2%; the “Leukemia, treated patients” value is “about 1%”; the “Myelodysplastic syndrome (MDS), treated patients” value is “about 2%”. Besides, in series [2], the “Effective half-life, first phase” value was in the range of 12 to 348 min; the “Effective half-life, second phase” value was 96 to 2080 min; the “Median absorbed dose (bone marrow), range over methods and models” value was 15.3-63.9 mGy/GBq. Besides, in series [3], the “Median value for the red marrow absorbed dose across all the studies” value is 50 mGy/GBq and the “Range of literature red marrow absorbed dose” value was 2-150 mGy/GBq.
